# Measurements as given in FireProtDB.
# Several values for one entry are separate records, joined by “and”; a condition that tells them apart may be missing. Identical values can stand only once.
# B1: Azurin, P00282 (parent)
# chain: MLRKLAAVSLLSLLSAPLLAAECSVDIQGNDQMQFNTNAITVDKSCKQFTVNLSHPGNLPKNVMGHNWVLSTAADMQGVVTDGMASGLDKDYLKPDDSRVIAHTKLIGSGEKDSVTFDVSKLKEGEQYMFFCTFPGHSALMKGTLTLK
# B2: Catalase-peroxidase 2, A4QUT2 (parent)
# chain: MHASLSSWLLAASLLTQPISVSGQGCPFAKRDGTVDSSLPQKRADAPETTTFGRCAVKSNQAGGGTRSHDWWPCQLRLDVLRQFQPSQNPLGGDFDYAEAFQSLDYEAVKKDIAALMTESQDWWPADFGNYGGLFVRMAWHSAGTYRAMDGRGGGGMGQQRFAPLNSWPDNQNLDKARRLIWPIKQKYGNKISWADLMLLTGNVALENMGFKTLGFGGGRADTWQSDEAVYWGAETTFVPQGNDVRYNNSVDINARADKLEKPLAATHMGLIYVNPEGPNGTPDPAASAKDIREAFGRMGMNDTETVALIAGGHAFGKTHGAVKGSNIGPAPEAADLGMQGLGWHNSVGDGNGPNQMTSGLEVIWTKTPTKWSNGYLESLINNNWTLVESPAGAHQWEAVNGTVDYPDPFDKTKFRKATMLTSDLALINDPEYLKISQRWLEHPEELADAFAKAWFKLLHRDLGPTTRYLGPEVPKESFIWQDPLPAREGDLIDDADVDKLKAAILSTDGLDVSKLASTAMACATTYRNSDKRGGCNGARIALEPQRNWVSNNPTQLSAVLDALKKVQSDFNGSNGNKKVSLADLIVLGGTAAVEKAAKDAGVDIKVPFSAGRVDATQEQTDVTQFSYLEPQADGFRNYGRGTARARTEEIMVDKASQLTLTPPELTVLVGGMRALGANYDGSDVGVFTANKGKLTPDFFVNLVDMNIAWTASGADGESWVGTDRKSRSEKYKGSRADLVFGSHAELRAIAEVYAENGNQEKFVKDFVAAWTKVMNLDRFDLKVKK
# B3: DNA-binding protein HU 1, P08821 (parent)
# chain: MNKTELINAVAEASELSKKDATKAVDSVFDTILDALKNGDKIQLIGFGNFEVRERSARKGRNPQTGEEIEIPASKVPAFKPGKALKDAVAGK
# B4: Interleukin-6, P08505 (parent)
# chain: MKFLSARDFHPVAFLGLMLVTTTAFPTSQVRRGDFTEDTTPNRPVYTTSQVGGLITHVLWEIVEMRKELCNGNSDCMNNDDALAENNLKLPEIQRNDGCYQTGYNQEICLLKISSGLLEYHSYLEYMKNNLKDNKKDKARVLQRDTETLIHIFNQEVKDLHKIVLPTPISNALLTDKLESQKEWLRTKTIQFILKSLEEFLKVTLRSTRQT
# B5: Beta-lactoglobulin, P02754 (parent)
# chain: MKCLLLALALTCGAQALIVTQTMKGLDIQKVAGTWYSLAMAASDISLLDAQSAPLRVYVEELKPTPEGDLEILLQKWENGECAQKKIIAEKTKIPAVFKIDALNENKVLVLDTDYKKYLLFCMENSAEPEQSLACQCLVRTPEVDDEALEKFDKALKALPMHIRLSFNPTQLEEQCHI
# B6: Tetracycline repressor protein class D, P0ACT4 (parent)
# chain: MARLNRESVIDAALELLNETGIDGLTTRKLAQKLGIEQPTLYWHVKNKRALLDALAVEILARHHDYSLPAAGESWQSFLRNNAMSFRRALLRYRDGAKVHLGTRPDEKQYDTVETQLRFMTENGFSLRDGLYAISAVSHFTLGAVLEQQEHTAALTDRPAAPDENLPPLLREALQIMDSDDGEQAFLHGLESLIRGFEVQLTALLQIVGGDKLIIPFC
# B7: Tissue-type plasminogen activator, P00750 (parent)
# chain: MDAMKRGLCCVLLLCGAVFVSPSQEIHARFRRGARSYQVICRDEKTQMIYQQHQSWLRPVLRSNRVEYCWCNSGRAQCHSVPVKSCSEPRCFNGGTCQQALYFSDFVCQCPEGFAGKCCEIDTRATCYEDQGISYRGTWSTAESGAECTNWNSSALAQKPYSGRRPDAIRLGLGNHNYCRNPDRDSKPWCYVFKAGKYSSEFCSTPACSEGNSDCYFGNGSAYRGTHSLTESGASCLPWNSMILIGKVYTAQNPSAQALGLGKHNYCRNPDGDAKPWCHVLKNRRLTWEYCDVPSCSTCGLRQYSQPQFRIKGGLFADIASHPWQAAIFAKHRRSPGERFLCGGILISSCWILSAAHCFQERFPPHHLTVILGRTYRVVPGEEEQKFEVEKYIVHKEFDDDTYDNDIALLQLKSDSSRCAQESSVVRTVCLPPADLQLPDWTECELSGYGKHEALSPFYSERLKEAHVRLYPSSRCTSQHLLNRTVTDNMLCAGDTRSGGPQANLHDACQGDSGGPLVCLNDGRMTLVGIISWGLGCGQKDVPGVYTKVTNYLDWIRDNMRP
# B8: Tryptophan synthase alpha chain, P0A877 (parent)
# chain: MERYESLFAQLKERKEGAFVPFVTLGDPGIEQSLKIIDTLIEAGADALELGIPFSDPLADGPTIQNATLRAFAAGVTPAQCFEMLALIRQKHPTIPIGLLMYANLVFNKGIDEFYAQCEKVGVDSVLVADVPVEESAPFRQAALRHNVAPIFICPPNADDDLLRQIASYGRGYTYLLSRAGVTGAENRAALPLNHLVAKLKEYNAAPPLQGFGISAPDQVKAAIDAGAAGAISGSAIVKIIEQHINEPEKMLAALKVFVQPMKAATRS
# B9: Cocaine esterase, Q9L9D7 (parent)
# chain: MVDGNYSVASNVMVPMRDGVRLAVDLYRPDADGPVPVLLVRNPYDKFDVFAWSTQSTNWLEFVRDGYAVVIQDTRGLFASEGEFVPHVDDEADAEDTLSWILEQAWCDGNVGMFGVSYLGVTQWQAAVSGVGGLKAIAPSMASADLYRAPWYGPGGALSVEALLGWSALIGTGLITSRSDARPEDAADFVQLAAILNDVAGAASVTPLAEQPLLGRLIPWVIDQVVDHPDNDESWQSISLFERLGGLATPALITAGWYDGFVGESLRTFVAVKDNADARLVVGPWSHSNLTGRNADRKFGIAATYPIQEATTMHKAFFDRHLRGETDALAGVPKVRLFVMGIDEWRDETDWPLPDTAYTPFYLGGSGAANTSTGGGTLSTSISGTESADTYLYDPADPVPSLGGTLLFHNGDNGPADQRPIHDRDDVLCYSTEVLTDPVEVTGTVSARLFVSSSAVDTDFTAKLVDVFPDGRAIALCDGIVRMRYRETLVNPTLIEAGEIYEVAIDMLATSNVFLPGHRIMVQVSSSNFPKYDRNSNTGGVIAREQLEEMCTAVNRIHRGPEHPSHIVLPIIKR
# B10: 3-isopropylmalate dehydrogenase, P05645 (parent)
# chain: MKKRIALLPGDGIGPEVLESATDVLKSVAERFNHEFEFEYGLIGGAAIDEHHNPLPEETVAACKNADAILLGAVGGPKWDQNPSELRPEKGLLSIRKQLDLFANLRPVKVFESLSDASPLKKEYIDNVDFVIVRELTGGLYFGQPSKRYVNTEGEQEAVDTLFYKRTEIERVIREGFKMAAARKGKVTSVDKANVLESSRLWREVAEDVAQEFPDVKLEHMLVDNAAMQLIYAPNQFDVVVTENMFGDILSDEASMLTGSLGMLPSASLSSSGLHLFEPVHGSAPDIAGKGMANPFAAILSAAMLLRTSFGLEEEAKAVEDAVNKVLASGKRTRDLARSEEFSSTQAITEEVKAAIMSENTISNV
# Variants of: B1
# Conditions: Pseudomonas aeruginosa (strain ATCC 15692 / DSM 22644 / CIP 104116 / JCM 14847 / LMG 12228 / 1C / PRS 101 / PAO1); pH 7.5; 40 °C; GdnHCl; Fluorescence; Tris Cl 2 mM; reversible: Yes; structure 5AZU; whole UniProt chain shown
Variant,ddG of mutation (higher = less stable),unfolding free energy
F130S,26.8 kJ/mol,9.2 kJ/mol
I27S,26.8 kJ/mol,9.2 kJ/mol

# Same assay, conditions: Pseudomonas aeruginosa (strain ATCC 15692 / DSM 22644 / CIP 104116 / JCM 14847 / LMG 12228 / 1C / PRS 101 / PAO1); pH 7; 20 °C; GdnHCl; CD; phosphate 5 mM; reversible: yes; structure 5AZU; whole UniProt chain shown
Variant,denaturant m value,denaturant midpoint (higher = more stable),unfolding free energy
H66G,3.94 kcal/mol/M,1.1 M,18.2 kJ/mol

# Variants of: B2
# Conditions: Pyricularia oryzae (strain 70-15 / ATCC MYA-4617 / FGSC 8958); pH 7; Thermal; DSC; Phosphate buffer 5 mM; transition: 2; structure 5JHZ; whole UniProt chain shown
row,Variant,Tm
1,W140F,44.8 °C
2,M299A,48.2 °C
3,Y273F,43.6 °C

# Variants of: B3
# Conditions: Bacillus subtilis (strain 168); pH 7.5; 20 °C; Thermal; CD; Tris/HCl 5 mM; reversible: yes; whole UniProt chain shown
row,Variant,unfolding free energy
1,F79W,40 kJ/mol
2,F50W,36 kJ/mol

# Variants of: B4
# Conditions: Mus musculus; pH 4; 25 °C; Urea; CD; Sodium acetate 20 mM/; reversible: yes; structure 2L3Y; whole UniProt chain shown
row,Variant,denaturant midpoint (higher = more stable)
1,F200A,2.6 M
2,Y123A,4.1 M

# Same assay, conditions: Mus musculus; pH 4; 25 °C; Urea; Fluorescence; Sodium acetate 20 mM/; reversible: yes; structure 2L3Y; whole UniProt chain shown
row,Variant,denaturant midpoint (higher = more stable)
1,F200A,3.5 M

# Same assay, conditions: Mus musculus; pH 4; 37 °C; Urea; CD; Sodium acetate 20 mM/; reversible: yes; structure 2L3Y; whole UniProt chain shown
row,Variant,denaturant midpoint (higher = more stable)
1,F200A,2.6 M

# Same assay, conditions: Mus musculus; pH 4; 37 °C; Urea; Fluorescence; Sodium acetate 20 mM/; reversible: yes; structure 2L3Y; whole UniProt chain shown
row,Variant,denaturant midpoint (higher = more stable)
1,F200A,3.5 M

# Variants of: B5
# Conditions: Bos taurus; pH 7.1; 30 °C; GdnHCl; CD; phosphate 0.11 M; NaCl 0.04 M; structure 1B0O; whole UniProt chain shown
Variant,ddG of mutation (higher = less stable),unfolding free energy
W35Y,28.9 kJ/mol,18 kJ/mol

# Variants of: B6
# Conditions: Escherichia coli; pH 7.5; 22 °C; Urea; CD; Tris-HCl 50 mM; NaCl 150 mM; reversible: yes(92%); structure 2TRT; whole UniProt chain shown
row,Variant,denaturant midpoint (higher = more stable)
1,R128E,4.9 M

# Variants of: B7
# Conditions: Homo sapiens; pH 4.5; Thermal; CD; Unknown; structure 1PK2; whole UniProt chain shown
row,Variant,unfolding free energy
1,H264Y R268G,14.2 kJ/mol
2,H264Y,12.1 kJ/mol

# Same assay, conditions: Homo sapiens; pH 7.4; Thermal; DSC; sodium Phosphate 10 mM; structure 1PML; whole UniProt chain shown
Variant,Tm,"change of melting temperature, mutant - wild type (higher = more stable)",unfolding enthalpy (calorimetric)
W277F,58.5 °C,-17.1 °C,167 kJ/mol
W277H,56.6 °C,-19 °C,234 kJ/mol
W277Y,63.3 °C,-12.3 °C,188 kJ/mol

# Variants of: B8
# Conditions: Escherichia coli (strain K12); pH 9; Thermal; DSC; Sodium tetraborate 1 mM; reversible: yes(>70%); structure 1WQ5; whole UniProt chain shown
Variant,Tm,"change of melting temperature, mutant - wild type (higher = more stable)"
K109N,52.5 °C,-1.5 °C

# Same assay, conditions: Escherichia coli (strain K12); pH 7.8; 25 °C; Urea; Fluorescence; Potassium phosphate 10 mM; reversible: yes; structure 1WQ5; whole UniProt chain shown
row,Variant,unfolding free energy
1,F258W,29.3 kJ/mol

# Same assay, conditions: Escherichia coli (strain K12); pH 7.8; 25 °C; Urea; Fluorescence; Potassium phosphate 10 mM; transition: 3; reversible: yes; structure 1WQ5; whole UniProt chain shown
row,Variant,unfolding free energy
1,F139W,23.4 kJ/mol and 20.5 kJ/mol

# Same assay, conditions: Escherichia coli (strain K12); pH 7; 25 °C; Thermal; DSC; tetra-borate 1 mM; reversible: yes(70-95%); structure 1WQ5; whole UniProt chain shown
Variant,unfolding enthalpy (calorimetric),unfolding free energy
E49Q,97.1 kJ/mol,31 kJ/mol

# Same assay, conditions: Escherichia coli (strain K12); pH 7; 25.8 °C; GdnHCl; CD; Potassium phosphate 0.01 M; reversible: yes; structure 1WQ5; whole UniProt chain shown
Variant,ddG of mutation (higher = less stable),unfolding free energy
E49Q,10.5 kJ/mol,26.4 kJ/mol
E49M,-19.2 kJ/mol,56.1 kJ/mol

# Same assay, conditions: Escherichia coli (strain K12); pH 7; Thermal; DSC; tetra-borate 1 mM; reversible: yes(70-95%); structure 1WQ5; whole UniProt chain shown
Variant,Tm,heat capacity change of unfolding
E49Q,59.4 °C,2.87 kcal/mol/K

# Same assay, conditions: Escherichia coli (strain K12); pH 7.2; 25 °C; Thermal; CD; tetra-borate 1 mM; reversible: yes(70-95%); structure 1WQ5; whole UniProt chain shown
row,Variant,unfolding free energy
1,E49Q,25.5 kJ/mol

# Same assay, conditions: Escherichia coli (strain K12); pH 7.2; Thermal; CD; tetra-borate 1 mM; reversible: yes(70-95%); structure 1WQ5; whole UniProt chain shown
Variant,Tm,heat capacity change of unfolding,unfolding enthalpy (van 't Hoff)
E49Q,59.6 °C,2.68 kcal/mol/K,59.8 kJ/mol

# Same assay, conditions: Escherichia coli (strain K12); pH 9.3; Thermal; CD; tetra-borate 1 mM; reversible: yes(70-95%); structure 1WQ5; whole UniProt chain shown
Variant,Tm,heat capacity change of unfolding,unfolding enthalpy (van 't Hoff)
E49Q,59.6 °C,2.68 kcal/mol/K,59.8 kJ/mol

# Same assay, conditions: Escherichia coli (strain K12); pH 9.3; Thermal; DSC; tetra-borate 1 mM; reversible: yes(70-95%); structure 1WQ5; whole UniProt chain shown
Variant,Tm,heat capacity change of unfolding
E49Q,62.4 °C,2.87 kcal/mol/K

# Variants of: B9
# Conditions: Rhodococcus sp. (strain MB1 Bresler); pH 8; Thermal; Fluorescence; Tris 50 mM; structure 1JU3; whole UniProt chain shown
Variant,Tm,"change of melting temperature, mutant - wild type (higher = more stable)"
L169K,41.1 °C,6.3 °C
T172R G173Q,41.2 °C,6.41 °C
G173Q,37.7 °C,2.97 °C

# Variants of: B10
# Conditions: Bacillus subtilis (strain 168); pH 7.6; Thermal; CD; potassium phosphate 20 mM; reversible: No; whole UniProt chain shown
row,Variant,"change of melting temperature, mutant - wild type (higher = more stable)"
1,M256F,-12.5 °C
2,M256L,0 °C
3,M256A,7 °C
4,M256V,2.5 °C
5,M256I,0 °C
